Assay results reported in article PMC6511873 (Nucleic Acids Research, 2019).
Values belong to the binder of their own block, whether it stands above or below them.

Legend:
[1] = molecular target: T1, Recombinant Fc-extracellular domain fusion of human Jagged-2 (Homo sapiens, UniProt Q9Y219); assay: ELISA
[2] = molecular target: T1, Recombinant Fc-extracellular domain …; assay: ELISA; remark: listed apart in the source

T1 sequence (Q9Y219 27-1080): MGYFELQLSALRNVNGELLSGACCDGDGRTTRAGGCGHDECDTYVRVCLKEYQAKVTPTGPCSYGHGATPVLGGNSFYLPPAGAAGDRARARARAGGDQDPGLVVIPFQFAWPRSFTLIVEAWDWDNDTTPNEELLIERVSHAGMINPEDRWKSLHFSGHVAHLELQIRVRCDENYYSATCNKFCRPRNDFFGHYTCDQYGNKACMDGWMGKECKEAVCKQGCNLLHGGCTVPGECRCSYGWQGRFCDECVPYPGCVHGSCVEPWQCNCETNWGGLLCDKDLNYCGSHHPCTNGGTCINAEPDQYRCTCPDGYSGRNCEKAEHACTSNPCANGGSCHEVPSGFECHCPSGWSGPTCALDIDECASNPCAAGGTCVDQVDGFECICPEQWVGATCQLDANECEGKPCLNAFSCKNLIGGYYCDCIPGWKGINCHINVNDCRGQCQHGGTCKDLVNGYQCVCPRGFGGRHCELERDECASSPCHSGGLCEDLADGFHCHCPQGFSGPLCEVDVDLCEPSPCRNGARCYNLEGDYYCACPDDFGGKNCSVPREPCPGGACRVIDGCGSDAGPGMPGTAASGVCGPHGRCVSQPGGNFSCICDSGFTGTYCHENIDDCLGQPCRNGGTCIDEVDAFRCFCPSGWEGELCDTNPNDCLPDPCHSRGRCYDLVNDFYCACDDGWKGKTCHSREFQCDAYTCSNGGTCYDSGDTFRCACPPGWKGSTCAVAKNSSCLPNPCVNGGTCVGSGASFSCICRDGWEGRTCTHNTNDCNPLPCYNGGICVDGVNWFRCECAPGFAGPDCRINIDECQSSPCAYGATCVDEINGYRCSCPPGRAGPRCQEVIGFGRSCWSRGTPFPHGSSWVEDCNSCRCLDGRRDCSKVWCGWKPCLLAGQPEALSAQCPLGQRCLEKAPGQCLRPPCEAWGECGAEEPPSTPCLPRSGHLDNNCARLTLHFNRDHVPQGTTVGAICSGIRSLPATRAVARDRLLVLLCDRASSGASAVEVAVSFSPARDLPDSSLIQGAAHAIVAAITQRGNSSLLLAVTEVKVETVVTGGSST

binding result [1]: binds
B1: Fab J2/F/R4 (purified) (Fab, V domains shown)
VH: EVQLVESGGGLVQPGGSLRLSCAASGFNLYSSYIHWVRQAPGKGLEWVAYISPSYGYTYYADSVKGRFTISADTSKNTAYLQMNSLRAEDTAVYYCARYYYSGWAVYAGMDYWGQGTLVTVSS
VL: DIQMTQSPSSLSASVGDRVTITCRASQSVSSAVAWYQQKPGKAPKLLIYSASSLYSGVPSRFSGSRSGTDFTLTISSLQPEDFATYYCQQWHHPPAPITFGQGTKVEIK

binding result [1]: binds
B2: Fab J2/F/R6 (purified) (Fab, V domains shown)
VH: EVQLVESGGGLVQPGGSLRLSCAASGFNLSYSSMHWVRQAPGKGLEWVAYISPSYGYTSYADSVKGRFTISADTSKNTAYLQMNSLRAEDTAVYYCARAHWSSYVSGGWAYPHHSGMDYWGQGTLVTVSS
VL: DIQMTQSPSSLSASVGDRVTITCRASQSVSSAVAWYQQKPGKAPKLLIYSASSLYSGVPSRFSGSRSGTDFTLTISSLQPEDFATYYCQQSYASVLITFGQGTKVEIK

EC50 [2]: 24.6 nM
B3: Fab J2/F/R7 (purified) (Fab, V domains shown)
VH: EVQLVESGGGLVQPGGSLRLSCAASGFNIYSSSMHWVRQAPGKGLEWVAYISPSYSYTYYADSVKGRFTISADTSKNTAYLQMNSLRAEDTAVYYCARSYWYSHYAWWWASYSVVGIDYWGQGTLVTVSS
VL: DIQMTQSPSSLSASVGDRVTITCRASQSVSSAVAWYQQKPGKAPKLLIYSASSLYSGVPSRFSGSRSGTDFTLTISSLQPEDFATYYCQQYASYPITFGQGTKVEIK
